Laboratory results reported in patent US20250170267A1, “ANTIBODY-DRUG CONJUGATE PRECURSOR AND INTERMEDIATE FOR SYNTHESIS THEREOF” (UBE Corporation, priority 2022, published 2025).
Numbered stars: 1 amine (or outer) side, 2 acyl side, 3 side chain; on linkers, the order of the positions; unused ones are H or OH. Square brackets hold non-standard residues; d marks the D form. Peptide text beside a SMILES is read from it. * marks the point of attachment. Exatecan = CC[C@@]1(O)C(=O)OCc2c1cc1n(c2=O)Cc2c-1nc1cc(F)c(C)c3c1c2[C@@H](N*)CC3; βAla(2S-maleimido) = O=C1C=CC(=O)N1[C@@H](CN[*:1])C(=O)[*:2]; Dolaproine = CO[C@@H]([C@@H]1CCCN1)[C@@H](C)C(=O)O; Hexanoyl(6-maleimido) = O=C1C=CC(=O)N1CCCCCC(=O)*; Propanoyl(3-maleimido) = O=C1C=CC(=O)N1CCC(=O)*; Dil = CC[C@H](C)[C@H](NC)[C@@H](CC(=O)O)OC; X3 = C[C@@H](N*)[C@@H](OP(=O)(O)O)c1ccccc1; Propanoyl(3-PO3H2) = O=C(CCP(=O)(O)O)*; PABC = O=C(OCc1ccc(N[*:1])cc1)[*:2]; NHCH2OCH2CO = O=C(COCN[*:1])[*:2]; X1 = C[C@@H](N*)[C@@H](O)c1ccccc1; hSer(lactone) = O=C1OCC[C@@H]1N*; Cit = NC(=O)NCCC[C@H](N)C(=O)O; PEG4 = NCCOCCOCCOCCOCCC(=O)O; NMeV = CN[C@H](C(=O)O)C(C)C

Key:
[1] = Retention time in HPLC (index of hydrophilicity); type: physicochemical; details: BEH C18, 0.1% formic acid/acetonitrile gradient, 40° C.
Procedure: As an index of hydrophilicity of the Examples, the retention time (RT) in HPLC analysis was measured, and compared.
Device: LCMS2020 system Shimadzu Corporation
Column: Acquity UPLC (registered trademark) BEH C18 (2.1×50 mm, 1.7 μm)_Waters
Eluent: Solution A: 0.1% aqueous solution of formic acid, Solution B: 0.1% solution of formic acid in acetonitrile

[2] = test system: human liver lysosome; assay: Metabolism test using human liver lysosomal fraction; type: in vitro ADME; details: 37° C., 24 hours, released drug, LC-MS/MS
Procedure: To a reaction composition solution (X10 Catabolic Buffer (manufactured by SEKISUI-Xenotech, LLC., K5200))(60 μL) in which human liver lysosome (manufactured by SEKISUI-Xenotech, LLC., Cat No. H610.L 2.5 mg/mL)(corresponding to 0.125 mg of protein) was suspended and distilled water (manufactured by FUJIFILM Wako Pure Chemical Corporation, for HPLC)(10 μL) was added 1.2 μM test compound (antibody-drug conjugate produced in ADC Production examples)(25 μL) dissolved in PBS to prepare a reaction solution. After the reaction solution was incubated at 37° C. for 24 hours, “an antitumor drug molecule or an analog thereof, or a derivative thereof” released from the antibody-drug conjugate into the reaction solution was quantified by LC-MS/MS (high performance liquid chromatography/mass spectrometer system) under the following conditions. LC-MS/MS analysis conditions
(§1) LC: LC20 or LC30 HPLC system manufactured by Shimadzu Corporation
(§2) Column: Phenomenex Kinetex C18 (50×2.1 mm, 2.6 μm)
(§3) Column temperature: 40° C.
(§4) Mobile phase A: 0.1% aqueous solution of formic acid, Mobile phase B: 0.1% solution of formic acid in a mixture of 50% acetonitrile/methanol
(§5) Mode: Positive or Negative
(§6) The release rate (%) of drug was calculated by the following equation.

[3] = Pharmacokinetic test (serum trastuzumab residual rate); type: in vivo; details: female BALB/c mouse, intravenous; 3 days vs 5 minutes after administration
Description: After a prescribed time period, the blood was collected from the jugular vein or abdominal vein, and centrifuged to prepare a serum. The resulting serum was cryopreserved until the measurement.

[4] = molecular target: T1, human liver Cathepsin B (Homo sapiens, UniProt P07858); assay: Metabolism test using human liver Cathepsin B; type: in vitro ADME; details: 37° C., 24 hours, released drug, LC-MS/MS
T1 construct: human liver Cathepsin B (manufactured by Sigma-Aldrich Co. LLC, Cat No. C8571 25 μg/vial); purchased Sigma-Aldrich Co. LLC C8571; host or cells: human liver
Procedure: To human liver Cathepsin B (manufactured by Sigma-Aldrich Co. LLC, Cat No. C8571 25 μg/vial)(corresponding to 400 Unit/mL)(5 μL), X10 Catabolic Buffer (manufactured by SEKISUI-Xenotech, LLC., K5200)(10 μL), 2.5 mM Bovine Serum Albumin (manufactured by FUJIFILM Wako Pure Chemical Corporation, Cat No. 012-15093)(5 μL), and distilled water (manufactured by FUJIFILM Wako Pure Chemical Corporation, for HPLC)(55 μL) was added 1.2 μM test compound (antibody-drug conjugate prepared in ADC Production examples)(25 μL) dissolved in PBS to prepare a reaction solution. After the reaction solution was incubated at 37° C. for 24 hours, “an antitumor drug molecule or an analog thereof, or a derivative thereof” released from the antibody-drug conjugate into the reaction solution was quantified by LC-MS/MS (high performance liquid chromatography/mass spectrometer system) under the following conditions. LC-MS/MS analysis conditions
as §1, §2, §3, §4, §5, §6

Structure (SMILES) | Retention time in HPLC measurement ([1]; Table 5 (MMAE-type precursors)) [min] | Release rate (%) of drug from ADC [2] [%] | Serum trastuzumab residual rate after 3 days from administration (%) [3] [%] | Release rate (%) of drug from ADC [4] [%] | Retention time in HPLC measurement ([1]; Table 6 (eribulin precursors)) [min]
CC[C@H](C)[C@@H]([C@@H](CC(=O)N1CCC[C@H]1[C@H](OC)[C@@H](C)C(=O)N[C@H](C)[C@@H](O)c1ccccc1)OC)N(C)C(=O)[C@@H](NC(=O)[C@H](C(C)C)N(C)C(=O)OCc1ccc(NC(=O)[C@H](CCCNC(N)=O)NC(=O)[C@@H](NC(=O)[C@H](CC(=O)N[C@H]2CCOC2=O)NC(=O)CCOCCOCCOCCOCCNC(=O)CCN2C(=O)C=CC2=O)C(C)C)cc1)C(C)C [Example 1] ({Propanoyl(3-maleimido)-PEG4}-D(hSer(lactone))V[Cit][PABC][NMeV]V[Dil][Dolaproine]-X1) | 1.12 | 68 | 35 | 71 | 
CC[C@H](C)[C@@H]([C@@H](CC(=O)N1CCC[C@H]1[C@H](OC)[C@@H](C)C(=O)N[C@H](C)[C@@H](OP(=O)(O)O)c1ccccc1)OC)N(C)C(=O)[C@@H](NC(=O)[C@H](C(C)C)N(C)C(=O)OCc1ccc(NC(=O)[C@H](CCCNC(N)=O)NC(=O)[C@@H](NC(=O)[C@H](CC(=O)N[C@H]2CCOC2=O)NC(=O)CCOCCOCCOCCOCCNC(=O)CCN2C(=O)C=CC2=O)C(C)C)cc1)C(C)C [Example 2] ({Propanoyl(3-maleimido)-PEG4}-D(hSer(lactone))V[Cit][PABC][NMeV]V[Dil][Dolaproine]-X3) | 0.96 |  |  |  | 
CC[C@H](C)[C@@H]([C@@H](CC(=O)N1CCC[C@H]1[C@H](OC)[C@@H](C)C(=O)N[C@H](C)[C@@H](OP(=O)(O)OCc1ccc(NC(=O)[C@H](CCCNC(N)=O)NC(=O)[C@@H](NC(=O)[C@H](CC(=O)N[C@H]2CCOC2=O)NC(=O)CCOCCOCCOCCOCCNC(=O)[C@H](CNC(=O)CCP(=O)(O)O)N2C(=O)C=CC2=O)C(C)C)cc1)c1ccccc1)OC)N(C)C(=O)[C@@H](NC(=O)[C@H](C(C)C)N(C)C)C(C)C [Example 3] | 0.70 |  |  |  | 
CC[C@H](C)[C@@H]([C@@H](CC(=O)N1CCC[C@H]1[C@H](OC)[C@@H](C)C(=O)N[C@H](C)[C@@H](O)c1ccccc1)OC)N(C)C(=O)[C@@H](NC(=O)[C@H](C(C)C)N(C)C(=O)OCc1ccc(NC(=O)[C@H](CCCNC(N)=O)NC(=O)[C@@H](NC(=O)[C@H](CC(=O)N[C@H]2CCOC2=O)NC(=O)CCOCCOCCOCCOCCNC(=O)[C@H](CNC(=O)CCP(=O)(O)O)N2C(=O)C=CC2=O)C(C)C)cc1)C(C)C [Example 8] ({Propanoyl(3-PO3H2)}-[βAla(2S-maleimido)][PEG4]D(hSer(lactone))V[Cit][PABC][NMeV]V[Dil][Dolaproine]-X1) | 1.03 | 60 |  | 41 | 
CC[C@@]1(O)C(=O)OCc2c1cc1n(c2=O)Cc2c-1nc1cc(F)c(C)c3c1c2[C@@H](NC(=O)COCNC(=O)CNC(=O)[C@H](Cc1ccccc1)NC(=O)CNC(=O)CNC(=O)[C@H](CC(=O)N[C@H]1CCOC1=O)NC(=O)CCCCCN1C(=O)C=CC1=O)CC3 [Example 13] ({Hexanoyl(6-maleimido)}-D(hSer(lactone))GGFG[NHCH2OCH2CO]-Exatecan) |  | 76 | 25 | 24 | 
C=C1C[C@@H]2CC[C@@]34C[C@H]5O[C@H]6[C@@H](O3)[C@H]3O[C@H](CC[C@@H]3O[C@H]6[C@H]5O4)CC(=O)C[C@@H]3[C@@H](OC)[C@@H](C[C@H](O)CNC(=O)OCc4ccc(NC(=O)[C@H](CCCNC(N)=O)NC(=O)[C@@H](NC(=O)[C@H](CC(=O)N[C@H]5CCOC5=O)NC(=O)CCOCCOCCOP(=O)(O)OCCNC(=O)[C@H](CNC(=O)CCP(=O)(O)O)N5C(=O)C=CC5=O)C(C)C)cc4)O[C@H]3C[C@H]3O[C@@H](CC[C@@H]1O2)C[C@@H](C)C3=C [Example 17] |  | 56 |  | 58 | 1.04
C=C1C[C@@H]2CC[C@@]34C[C@H]5O[C@H]6[C@@H](O3)[C@H]3O[C@H](CC[C@@H]3O[C@H]6[C@H]5O4)CC(=O)C[C@@H]3[C@@H](OC)[C@@H](C[C@@H](CNC(=O)OCc4ccc(NC(=O)[C@H](CCCNC(N)=O)NC(=O)[C@@H](NC(=O)[C@H](CC(=O)N[C@H]5CCOC5=O)NC(=O)CCOCCOCCOCCOCCNC(=O)[C@H](CNC(=O)CCP(=O)(O)O)N5C(=O)C=CC5=O)C(C)C)cc4)OP(=O)(O)O)O[C@H]3C[C@H]3O[C@@H](CC[C@@H]1O2)C[C@@H](C)C3=C [Example 26] |  |  |  |  | 0.91
